Experimental findings from paper PMC3280215 (Science (New York, N.y.), 2011) are described below.

To fix the notation:
B1: PGT 128 VH H52aA (antibody, V domains shown)
VH: QPQLQESGPTLVEASETLSLTCAVSGDSTAACNSFWGWVRQPPGKGLEWVGSLSACASYWNRGWTYHNPSLKSRLTLALDTPKNLVFLKLNSVTAADTATYYCARFGGEVLRYTDWPKPAWVDLWGRGTLVTVSS
VL: QSALTQPPSASGSPGQSITISCTGTSNNFVSWYQQHAGKAPKLVIYDVNKRPSGVPDRFSGSKSGNTASLTVSGLQTDDEAVYYCGSLVGNWDVIFGGGTKLTVL
B2: PGT 128 (format not stated for the experiment) (antibody, V domains shown)
VH: QPQLQESGPTLVEASETLSLTCAVSGDSTAACNSFWGWVRQPPGKGLEWVGSLSHCASYWNRGWTYHNPSLKSRLTLALDTPKNLVFLKLNSVTAADTATYYCARFGGEVLRYTDWPKPAWVDLWGRGTLVTVSS
VL: QSALTQPPSASGSPGQSITISCTGTSNNFVSWYQQHAGKAPKLVIYDVNKRPSGVPDRFSGSKSGNTASLTVSGLQTDDEAVYYCGSLVGNWDVIFGGGTKLTVL
B3: PGT 127 (format not stated for the experiment) (antibody, V domains shown)
VH: QPQLQESGPGLVEASETLSLTCTVSGDSTGRCNYFWGWVRQPPGKGLEWIGSLSHCRSYYNTDWTYHNPSLKSRLTISLDTPKNQVFLRLTSVTAADTATYYCARFGGEVLVYRDWPKPAWVDLWGRGTLVTVSS
VL: QSALTQPPSASGSPGQSITISCTGTSNNFVSWYQQYPGKAPKLVIYEVNKRPSGVPDRFSGSKSGSTASLTVSGLQADDEGVYYCSSLVGNWDVIFGGGTKLTVL
B4: PGT 128 IgG (antibody, V domains shown)
VH: QPQLQESGPTLVEASETLSLTCAVSGDSTAACNSFWGWVRQPPGKGLEWVGSLSHCASYWNRGWTYHNPSLKSRLTLALDTPKNLVFLKLNSVTAADTATYYCARFGGEVLRYTDWPKPAWVDLWGRGTLVTVSS
VL: QSALTQPPSASGSPGQSITISCTGTSNNFVSWYQQHAGKAPKLVIYDVNKRPSGVPDRFSGSKSGNTASLTVSGLQTDDEAVYYCGSLVGNWDVIFGGGTKLTVL
B5: PGT 127 IgG (antibody, V domains shown)
VH: QPQLQESGPGLVEASETLSLTCTVSGDSTGRCNYFWGWVRQPPGKGLEWIGSLSHCRSYYNTDWTYHNPSLKSRLTISLDTPKNQVFLRLTSVTAADTATYYCARFGGEVLVYRDWPKPAWVDLWGRGTLVTVSS
VL: QSALTQPPSASGSPGQSITISCTGTSNNFVSWYQQYPGKAPKLVIYEVNKRPSGVPDRFSGSKSGSTASLTVSGLQADDEGVYYCSSLVGNWDVIFGGGTKLTVL
B6: Fab PGT 127 (Fab, V domains shown)
VH: QPQLQESGPGLVEASETLSLTCTVSGDSTGRCNYFWGWVRQPPGKGLEWIGSLSHCRSYYNTDWTYHNPSLKSRLTISLDTPKNQVFLRLTSVTAADTATYYCARFGGEVLVYRDWPKPAWVDLWGRGTLVTVSS
VL: QSALTQPPSASGSPGQSITISCTGTSNNFVSWYQQYPGKAPKLVIYEVNKRPSGVPDRFSGSKSGSTASLTVSGLQADDEGVYYCSSLVGNWDVIFGGGTKLTVL
B7: Fab PGT 128 (Fab, V domains shown)
VH: QPQLQESGPTLVEASETLSLTCAVSGDSTAACNSFWGWVRQPPGKGLEWVGSLSHCASYWNRGWTYHNPSLKSRLTLALDTPKNLVFLKLNSVTAADTATYYCARFGGEVLRYTDWPKPAWVDLWGRGTLVTVSS
VL: QSALTQPPSASGSPGQSITISCTGTSNNFVSWYQQHAGKAPKLVIYDVNKRPSGVPDRFSGSKSGNTASLTVSGLQTDDEAVYYCGSLVGNWDVIFGGGTKLTVL

One test deals with gp120 (of the ELISA) (HIV-1, strain  for ELISA; …, UniProt Q75760). Briefly: ELISA.
For B1, the binding result is given as “binds”.

As for B2, the binding result is “binds”.

Take B3: the binding result is reported as “binds”.

Another test concerns the target HIV-1 YU2 Env on the cell surface (HIV-1 YU2, UniProt P35961). Put plainly: flow cytometry on cells. For orientation: A flow cytometer gives signals particle by particle.
For B4, the binding result is on record as “binds”.

For B5, the binding result is “binds”.

Consider B6, for which the binding result is given as “binds”.

Regarding B7, the binding result was “binds”.
